Bounds are passed on as bounds.

Test [1] deals with VEGF (vascular endothelial growth factor) (UniProt P15692). The test is described as follows: BioVeris ECL competition assay with a labeled competitor; legend: +++ = IC50 about 2 - 10 µM.
Test [2] has the same target. The test is described as follows: BioVeris ECL competition assay with a labeled competitor; negative control.
Test [3] addresses FGF-5 (fibroblast growth factor 5) (UniProt P12034). The description is as above.
For test [4], the target named is TGFβ1 (transforming growth factor β1) (UniProt P01137). The test is described as follows: BioVeris ECL competition assay with a labeled competitor; legend: ++ = IC50 about 10 - 50 µM.
Sequence of TGFβ1 (transforming growth factor β1) (P01137 279-390 limits assumed): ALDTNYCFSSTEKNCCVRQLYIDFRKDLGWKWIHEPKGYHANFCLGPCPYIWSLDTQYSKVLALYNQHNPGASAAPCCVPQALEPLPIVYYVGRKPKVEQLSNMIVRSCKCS

Sequence of VEGF (vascular endothelial growth factor) (P15692 other isoform, or with tags, fused parts or gaps limits assumed): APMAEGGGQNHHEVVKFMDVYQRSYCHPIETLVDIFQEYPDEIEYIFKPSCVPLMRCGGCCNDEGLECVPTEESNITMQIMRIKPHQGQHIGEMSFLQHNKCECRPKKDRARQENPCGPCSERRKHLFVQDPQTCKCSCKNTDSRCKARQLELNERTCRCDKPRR
Sequence of FGF-5 (fibroblast growth factor 5) (P12034 18-268 limits assumed): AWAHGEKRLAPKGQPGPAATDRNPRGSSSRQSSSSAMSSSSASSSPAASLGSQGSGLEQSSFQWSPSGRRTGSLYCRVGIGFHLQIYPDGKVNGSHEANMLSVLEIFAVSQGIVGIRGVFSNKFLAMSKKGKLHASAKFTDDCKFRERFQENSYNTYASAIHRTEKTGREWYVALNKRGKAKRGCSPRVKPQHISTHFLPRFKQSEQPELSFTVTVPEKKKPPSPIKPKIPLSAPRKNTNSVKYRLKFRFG

The substance “BBIt-VEGK (BBIt with the VEGF-binding peptide VegK KYYLYWW in the chymotrypsin loop) (designed binder)” displayed a concentration for half-maximal inhibition (IC50) in test [1] of 2 to 10 µM.
For “sBBI (wild-type soybean Bowman-Birk Inhibitor) (from UniProt P01055 40-110)”, the IC50 in test [2] and in test [3] was > 250 µM in each case.
The substance “BBIt with the VEGF-binding peptide VegKD (KYDLYWW) in the chymotrypsin loop (designed binder)” displayed an IC50 in test [1] of 2 to 10 µM.
“BBIt-VEGT (BBIt with the VEGF-binding peptide VegT TLWKSYW in the chymotrypsin loop) (designed binder)”: the IC50 in test [1] was in the range of 2 to 10 µM.
The substance “WTQ-BBIt-Q-TGF (BBIt-A13I-L29P-F50T-V52A with the TGFβ1 binding peptide WTQ WTQHIHN) (designed binder)” registered an IC50 in test [4] of 10 to 50 µM.
For “PEN3-Q-BBIt-TGF-A40L-F50N (BBIt-A40L-F50N with the TGFβ1 binding peptide PEN3 PENINVLP) (designed binder)”, the IC50 in test [4] lay within 10 to 50 µM.

The term IC50 denotes the midpoint of a concentration-inhibition curve.

Values taken from EP2344531B1.
